# T1: AccuPrime protein (AccuPrime Protein I; MjaSSB, Mja RPA SSB) (Methanococcus jannaschii, UniProt Q58559 Q58559:1-645)
# T1 sequence: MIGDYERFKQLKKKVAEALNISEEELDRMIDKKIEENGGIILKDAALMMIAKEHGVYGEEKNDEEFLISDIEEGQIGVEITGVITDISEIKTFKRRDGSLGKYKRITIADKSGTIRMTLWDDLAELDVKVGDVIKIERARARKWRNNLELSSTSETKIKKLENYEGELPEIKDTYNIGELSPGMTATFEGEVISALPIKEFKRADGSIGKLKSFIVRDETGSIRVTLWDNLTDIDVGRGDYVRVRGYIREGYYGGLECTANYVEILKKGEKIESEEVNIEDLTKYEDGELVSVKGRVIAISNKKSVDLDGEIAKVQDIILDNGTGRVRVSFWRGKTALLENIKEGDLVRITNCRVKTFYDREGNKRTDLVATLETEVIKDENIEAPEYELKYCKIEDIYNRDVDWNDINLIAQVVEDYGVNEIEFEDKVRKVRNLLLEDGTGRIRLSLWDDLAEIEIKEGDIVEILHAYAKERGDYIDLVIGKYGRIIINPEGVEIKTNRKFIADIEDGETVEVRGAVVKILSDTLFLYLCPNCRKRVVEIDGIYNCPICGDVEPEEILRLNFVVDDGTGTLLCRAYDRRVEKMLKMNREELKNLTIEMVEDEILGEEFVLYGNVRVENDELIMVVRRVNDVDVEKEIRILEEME
# Tests used:
# [1] = system: AccuPrime Protein II (SsoSSB) (Sulfolobus solfataricus); settings: CITED Haseltine and Kowalczykowski 2002; about 3 orders of magnitude higher than AccuPrime protein I; cited from earlier work
# [2] = target: T1, AccuPrime protein (AccuPrime Protein I; …); assay: EMSA; 20 nM oligo, 0-40 nM protein; near-stoichiometric shift, super-shift, weak negative cooperativity; 20 mM Tris-HCl pH 8.4, 50 mM KCl, 1.5 mM MgCl2, 70 C; text calls it 84-mer or 86-mer; settings: tags: expressed in E. coli BL21(DE3), Ni-NTA purified; label: 5'-32P
# Description: Single stranded DNA binding. AccuPrime protein affinity for secondary structure of the single stranded DNA was tested with the 84 mer synthetic oligonucleotide KP_PALIN_cont: 5′-CTCCTGGATCGACTTCAGTCCGCTGATGATTAGATGTCGTCCTGGATCGACTTCACTCCGCACCCGCTACCAACAACAGTACCC-3′. The oligonucleotide was radiolabeled at the 5′ end in the same manner as the 5′ (ss) substrate for the exo-nuclease activity assay above with the oligonucleotide concentration at 5 μM.
# Single stranded DNA binding. The binding affinity of AccuPrime protein to single stranded DNA (ssDNA) was measured using electrophoretic mobility shift assay (EMSA) on 6% horizontal polyacrylamide gel in TBE. The ssDNA molecules used in the assay were synthetic 86-mer oligonucleotides. The 5′ radiolabeled oligonucleotides were incubated with increasing amounts of the protein in 1×PCR buffer (20 mM Tris-HCl, pH 8.4, 50 mM KCl, 1.5 mM MgCl₂) at 70° C. for 5 min, and an aliquot of the reaction mix was loaded on the gel with currents on. The electrophoresis was continued for 1 hr and the gel was autoradiographed after dried.
Molecule,Kd [1] [nM],binding result [2]
single-stranded DNA (unspecified),500,–
KP_PALIN_cont (ssDNA) DNA: CTCCTGGATCGACTTCAGTCCGCTGATGATTAGATGTCGTCCTGGATCGACTTCACTCCGCACCCGCTACCAACAACAGTACCC,–,binds

# Source: patent US20070178491, “Compositions and Methods for Synthesizing Nucleic Acids” (INVITROGEN CORPORATION, published 2007)
